Results from the supplement of paper PMC10567573.

B1: BRF1 (parent)
chain: FVESSGGGSSAVGQFVSLDGAGKT

Variants of: B1
Test: protein stability index of a GFP-peptide fusion (GPS, HEK-293T) (PSI 1-6); higher = more stable
Conditions: c terminus: a fixed tail appended
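Also: lentivirally expressed fusions sorted by FACS into six bins by GFP to DsRed ratio, PSI derived from sequencing read proportions per bin multiplied by bin number.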

Protein stability index, by site and new letter:
G6: W 2.5 | C 1.97 | K 2.3 | V 2.18 | A 2.37 | H 1.74 | D 2.96 | N 1.89 | F 1.45 | Q 2.66 | L 1.97 | Y 2.45 | T 2.53 | S 2.7 | I 1.49 | E 2.94 | P 2.23 | M 1.76 | R 2.27
F1: Y 2.75 | W 3.88
G8: Q 3.27 | F 1.69 | K 2.89 | I 1.84 | E 3.31 | S 2.06 | A 2.36 | C 1.95 | L 2.06 | R 1.32 | M 1.71 | Y 2.46 | N 2.12 | T 2.52 | P 2.08 | H 1.51 | D 2.44 | V 1.95
E3: T 1.43 | D 1.97 | V 3.03 | S 1.33 | I 2.62 | Q 1.78 | L 1.17 | M 2.71 | W 3.35 | N 1.75 | C 1.88 | H 2.01 | R 3.14
G7: H 1.68 | V 1.61 | C 2.31 | A 2.86 | T 2.38 | F 2.93 | P 2.34 | S 1.78 | I 1.81 | Q 2.26 | N 2.26 | W 2.54 | M 2.05 | D 3.52 | E 3.02 | K 2.09 | L 1.52 | R 1.38
S10: Q 2.53 | H 1.99 | K 1.42 | V 1.96 | T 2.72 | L 1.81 | C 1.33 | M 1.46 | Y 1.64 | E 2.31 | N 2.31 | I 1.37 | D 2.75 | P 2.57 | G 2.23 | R 1.98
V2: Q 4.12 | S 4.35 | H 3.87 | M 4.49 | A 3.78 | D 5.17 | R 4.44 | Y 4.16 | I 3.22 | L 4.72 | K 4.25 | P 4.97 | F 4.2 | G 4.36 | C 3.96 | N 4.94 | T 4.76 | E 5.33 | W 4.01
S4: T 2.29 | V 2.54 | M 1.08 | G 2.81 | P 2.67 | W 2.63 | C 3.2 | H 2.57 | D 2.49 | K 2.63 | Q 2.72 | E 3.28 | F 2.01 | R 2.42 | Y 1.3 | N 2.62 | L 1.51 | I 1.86 | A 1.97
S9: M 1.99 | V 2.58 | F 1.49 | N 2.38 | P 1.5 | D 3.03 | E 3.38 | R 1.68 | H 2.17 | Q 2.22 | A 2.2 | I 2.39 | G 2.36 | Y 2.82 | C 2.22 | K 1.72 | T 2.29 | W 2.93 | L 1.77
A11: D 2.68 | E 3.28 | F 2.02 | H 1.9 | C 1.58 | G 2.28
S5: H 1.81 | M 1.75 | D 3.37 | I 2.24 | Y 1.53 | V 1.75 | R 1.92 | E 3.68 | C 2.03 | T 2.62 | K 2.58 | P 2.01 | F 3 | L 1.36 | A 2.57 | N 2.65 | G 2.19 | Q 2.71
